Data reported in PMC2835468 (Matrix biology : journal of the International Society for …, 2009).

How the values were obtained:
Assay in all cases: enzyme inhibition kinetics
[1] = target: T1, ADAMTS5-2 (human ADAMTS-5 deletion mutant, C-terminal FLAG-tag) (human, UniProt Q9UNA0 262-874)
T1 sequence (looked up): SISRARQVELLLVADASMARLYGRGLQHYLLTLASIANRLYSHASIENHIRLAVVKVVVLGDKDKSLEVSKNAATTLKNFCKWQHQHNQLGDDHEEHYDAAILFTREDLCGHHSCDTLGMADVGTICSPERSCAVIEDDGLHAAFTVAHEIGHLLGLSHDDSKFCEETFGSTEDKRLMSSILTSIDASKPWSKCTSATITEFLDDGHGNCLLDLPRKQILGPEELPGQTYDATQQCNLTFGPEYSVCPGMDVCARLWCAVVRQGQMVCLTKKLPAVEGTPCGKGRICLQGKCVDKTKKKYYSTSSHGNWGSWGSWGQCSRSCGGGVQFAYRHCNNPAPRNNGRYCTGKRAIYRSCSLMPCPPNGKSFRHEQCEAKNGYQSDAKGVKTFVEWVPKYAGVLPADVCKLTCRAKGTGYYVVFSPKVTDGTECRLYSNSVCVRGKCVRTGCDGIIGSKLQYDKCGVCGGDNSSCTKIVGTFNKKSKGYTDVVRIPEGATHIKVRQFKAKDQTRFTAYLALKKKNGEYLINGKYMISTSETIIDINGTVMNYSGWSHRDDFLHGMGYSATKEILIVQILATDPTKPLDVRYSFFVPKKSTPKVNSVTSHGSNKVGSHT

[2] = target: T2, ADAMTS5-3 (human ADAMTS-5 deletion mutant, C-terminal FLAG-tag) (human, UniProt Q9UNA0 262-731)
T2 sequence (looked up): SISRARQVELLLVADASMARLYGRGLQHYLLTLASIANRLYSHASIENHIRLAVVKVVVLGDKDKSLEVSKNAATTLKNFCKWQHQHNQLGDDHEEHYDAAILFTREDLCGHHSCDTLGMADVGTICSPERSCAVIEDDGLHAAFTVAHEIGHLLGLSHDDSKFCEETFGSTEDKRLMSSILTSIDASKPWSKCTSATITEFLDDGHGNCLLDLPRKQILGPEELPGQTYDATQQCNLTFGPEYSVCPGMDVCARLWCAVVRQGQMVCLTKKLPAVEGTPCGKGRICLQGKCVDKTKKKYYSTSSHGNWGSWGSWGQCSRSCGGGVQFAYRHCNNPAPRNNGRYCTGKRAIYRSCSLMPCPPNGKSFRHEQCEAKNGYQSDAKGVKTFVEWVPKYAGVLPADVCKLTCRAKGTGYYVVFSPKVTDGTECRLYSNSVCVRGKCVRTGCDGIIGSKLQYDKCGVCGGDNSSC

[3] = target: T3, ADAMTS5-4 (human ADAMTS-5 deletion mutant, C-terminal FLAG-tag) (human, UniProt Q9UNA0 262-622)
T3 sequence (looked up): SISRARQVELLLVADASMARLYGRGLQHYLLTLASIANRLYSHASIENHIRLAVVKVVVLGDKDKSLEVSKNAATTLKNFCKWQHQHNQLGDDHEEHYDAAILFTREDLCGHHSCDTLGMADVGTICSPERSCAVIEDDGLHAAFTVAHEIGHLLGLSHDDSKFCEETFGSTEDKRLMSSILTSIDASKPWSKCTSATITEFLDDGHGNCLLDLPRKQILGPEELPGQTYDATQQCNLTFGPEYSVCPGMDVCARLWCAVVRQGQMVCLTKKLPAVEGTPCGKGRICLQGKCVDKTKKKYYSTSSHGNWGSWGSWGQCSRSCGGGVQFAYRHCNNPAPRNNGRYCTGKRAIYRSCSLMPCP

[4] = target: T4, ADAMTS5-5 (human ADAMTS-5, catalytic and disintegrin domain, C-terminal FLAG-tag) (human, UniProt Q9UNA0 262-566)
T4 sequence (looked up): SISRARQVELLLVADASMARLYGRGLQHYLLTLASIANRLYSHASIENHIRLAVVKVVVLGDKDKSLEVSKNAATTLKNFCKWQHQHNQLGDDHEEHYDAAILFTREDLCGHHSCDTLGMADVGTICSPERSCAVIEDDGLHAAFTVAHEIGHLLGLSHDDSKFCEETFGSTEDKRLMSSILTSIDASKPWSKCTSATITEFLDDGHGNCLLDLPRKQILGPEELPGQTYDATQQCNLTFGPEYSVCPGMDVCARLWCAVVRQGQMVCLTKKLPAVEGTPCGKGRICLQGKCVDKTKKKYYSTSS

B1: FLAG-tagged glycosylated human TIMP-3 (full-length tissue inhibitor of metalloproteinases 3), expressed in HEK293 (natural protein, UniProt P35625 24-211, looked up)
chain: CTCSPSHPQDAFCNSDIVIRAKVVGKKLVKEGPFGTLVYTIKQMKMYRGFTKMPHVQYIHTEASESLCGLKLEVNKYQYLLTGRVYDGKMYTGLCNFVERWDQLTLSQRKGLNYRYHLGCNCKIKSCYYLPCFVTSKNECLWTDMLSNFGYPGYQSKHYACIRQKGGYCSWYRGWAPPDKSIINATDP
modifications: glycosylated (only the 27 kDa glycosylated form remained after purification; single N-glycosylation site in the C-terminal domain)
Ki [1]: 0.72 nM | Ki [2]: 1 nM | Ki [3]: 1.13 nM | Ki [4]: 1.17 nM
